Article PMC13282566, “Regulation of Citron kinase by CDK1 and Aurora B regulates midbody formation and stability” (Journal of Cell Science, 2026)

B1: MBP::CIT-K(420-585) (domain or fragment, human, UniProt O14578-4 420-585, looked up)
chain: SYSKALGILGRSESVVSGLDSPAKTSSMEKKLLIKSKELQDSQDKCHKMEQEMTRLHRRVSEVEAVLSQKEVELKASETQRSLLEQDLATYITECSSLKRSLEQARMEVSQEDDKALQLLHDIREQSRKLQEIKEQEYQAQVEEMRLMMNQLEEDLVSARRRSDLY
notes: contains S440; numbering of UniProt O14578-4; Cloned into pKM596; also called MBP::CC1 fragment containing S440; source: E. coli, purified (amylose resin, eluted with maltose)
B2: MBP::CIT-K(420-585) phosphorylated by CDK1/cyclin B (pS440) (domain or fragment, human, UniProt O14578-4 420-585, looked up)
chain: B1 chain
modifications: phosphoserine at 440 (in vitro by CDK1/cyclin B, detected with the CIT-K pS440 antibody)
notes: numbering of UniProt O14578-4; source: E. coli, purified (amylose resin), then incubated with recombinant CDK1/cyclin B

Experiments:
KIF14 901-1648 = KIF14 901-1648 (UniProt Q15058); assay: GST pull-down of MBP-tagged fragment, western blot; conditions: reference: fragment incubated without CDK1/cyclin B; sites S440
GST::KIF14(901-1648) = biological target: T1, GST::KIF14(901-1648) (UniProt Q15058 901-1648); assay: pull-down; GST-tagged KIF14 or MKLP1 fragment on glutathione sepharose beads, purified MBP::CIT-K fragment in solution (with or without prior incubation with CDK1/cyclin B or AURKB); NET-N+ buffer (50 mM Tris-HCl pH 7.4, 150 mM NaCl, 5 mM EDTA, 0.2% NP-40), 60 min at 4°C; washes with 250 mM NaCl; western blot; conditions: both partners purified
T1 construct: Cloned into pDEST15; source: E. coli, purified (glutathione sepharose 4B), kept on beads; not shown: GST, N-terminal, kept
T1 sequence (looked up): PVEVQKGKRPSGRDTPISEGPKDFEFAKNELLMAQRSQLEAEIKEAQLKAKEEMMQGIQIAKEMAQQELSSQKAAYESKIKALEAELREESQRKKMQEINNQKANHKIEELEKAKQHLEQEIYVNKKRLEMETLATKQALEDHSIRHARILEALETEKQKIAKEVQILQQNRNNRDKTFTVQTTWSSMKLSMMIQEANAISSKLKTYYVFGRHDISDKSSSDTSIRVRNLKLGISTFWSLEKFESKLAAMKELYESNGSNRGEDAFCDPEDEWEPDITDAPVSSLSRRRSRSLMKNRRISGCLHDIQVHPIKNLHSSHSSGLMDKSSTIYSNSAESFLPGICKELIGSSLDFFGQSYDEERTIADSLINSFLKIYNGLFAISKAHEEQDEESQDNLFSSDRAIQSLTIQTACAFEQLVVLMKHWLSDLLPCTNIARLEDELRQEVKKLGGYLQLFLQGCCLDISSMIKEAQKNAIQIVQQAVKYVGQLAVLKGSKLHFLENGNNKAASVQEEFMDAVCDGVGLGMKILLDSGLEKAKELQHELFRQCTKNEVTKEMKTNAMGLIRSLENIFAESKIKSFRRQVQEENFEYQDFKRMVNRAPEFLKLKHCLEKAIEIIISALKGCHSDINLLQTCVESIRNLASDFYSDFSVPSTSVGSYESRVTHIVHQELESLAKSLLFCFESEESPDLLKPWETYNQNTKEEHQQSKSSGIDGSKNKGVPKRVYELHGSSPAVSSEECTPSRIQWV

Molecule	binding against the reference (KIF14 901-1648)	binding result (GST::KIF14(901-1648))
Citron kinase (CIT-K) 420-585 (from UniProt O14578-4) fragment incubated with CDK1/cyclin B	same	–
B1	–	binds
B2	–	binds
